We go through 24 molecules from patent US10683329B2, “Dual-site BACE1 inhibitors” (priority 2014, dated 2020).

To fix the notation:
B1: Tyr-Pro-Lys-Phe-Ile-Pro-Leu-Gly-DLys-Gly-Glu-Val-Asn-Leu*Ala-Ala-Glu-DPro-Lys(Chol'ester')-NH2 x 3TFA (peptide)
peptide: YPKFIPLG[dK]GEVNLAAE[dP]K(Chol'ester')-NH2
modifications: also: Leu14*Ala15 Tang hydroxyethylene dipeptide isostere, trifluoroacetate salt (x 3TFA)

*1 amine or outer side, *2 acyl side, *3 side chain or, on linkers, in order; H or OH if unused. Where a SMILES comes first, the peptide text is derived from it. Where no end group is shown, it is not given here. [ ]: non-standard residue; d: D form. The star is where a group is joined. Succinyl(4-O-cholesteryl) = CC(C)CCC[C@@H](C)[C@H]1CC[C@H]2[C@@H]3CC=C4C[C@@H](OC(=O)CCC(=O)*)CC[C@]4(C)[C@H]3CC[C@]12C; MetSta(3S,4S) = CSCC[C@H](N[*:1])[C@@H](O)CC(=O)[*:2]; Sta = CC(C)C[C@H](N)[C@@H](O)CC(=O)O; PEG4 = NCCOCCOCCOCCOCCC(=O)O; PEG3 = NCCOCCOCCOCCC(=O)O; Ava = NCCCCC(=O)O; βAla = NCCC(=O)O

For the first experiment, the target named is T1, BACE1 (Homo sapiens, UniProt P56817).
T1 construct: Human HEK293 cells which are stably transfected with a vector expressing a cDNA of the human APP wt gene (APP695); endogenous in cells; host or cells: HEK293 (human), stably transfected with human APP695 wt
T1 sequence (P56817 46-501): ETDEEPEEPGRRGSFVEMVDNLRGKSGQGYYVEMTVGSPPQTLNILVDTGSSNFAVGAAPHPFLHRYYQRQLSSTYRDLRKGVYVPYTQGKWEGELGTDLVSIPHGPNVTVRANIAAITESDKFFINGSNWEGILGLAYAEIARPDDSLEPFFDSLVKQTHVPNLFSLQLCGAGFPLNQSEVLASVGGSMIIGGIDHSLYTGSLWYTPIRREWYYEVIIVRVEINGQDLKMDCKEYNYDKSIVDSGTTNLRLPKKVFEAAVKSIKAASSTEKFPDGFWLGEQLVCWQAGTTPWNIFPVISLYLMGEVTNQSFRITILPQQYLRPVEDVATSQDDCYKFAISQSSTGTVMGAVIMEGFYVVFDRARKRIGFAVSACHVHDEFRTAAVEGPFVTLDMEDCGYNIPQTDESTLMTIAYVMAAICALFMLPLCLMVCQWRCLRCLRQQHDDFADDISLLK
Put plainly: Cellular Aβ-lowering assay (Aβ40 ELISA of culture supernatant). Type of experiment: cell-based.
Settings: not given
How it is done: The compounds were investigated in accordance with the test given hereinafter.
Cellular Aβ-Lowering Assay:
Human HEK293 cells which are stably transfected with a vector expressing a cDNA of the human APP wt gene (APP695) were used to assess the potency of the compounds in a cellular assay. The cells were seeded in 96-well microtiter plates in cell culture medium (Iscove, plus 10% (v/v) fetal bovine serum, glutamine, penicillin/streptomycin) to about 80% confluence and the compounds were added at a 10× concentration in 1/10 volume of medium without FCS containing 8% DMSO (final concentration of DMSO was kept at 0.8% v/v). After 18-20 hrs incubation at 37° C. and 5% CO2 in a humidified incubator the culture supernatant was harvested for the determination of Aβ40 concentrations. 96 well ELISA plates (e.g., Nunc MaxiSorb) were coated with monoclonal antibody which specifically recognize the C-terminal end of Aβ40 (Brockhaus et al., NeuroReport 9; 1481-1486; 1998). After blocking of non-specific binding sites with e.g. 1% BSA and washing, the culture supernatants were added in suitable dilutions together with a horseradish peroxidase-coupled Aβ detection antibody (e.g., antibody 4G8, Senetek, Maryland Heights, Mo.) and incubated for 5 to 7 hrs. Subsequently the wells of the microtiter plate were washed extensively with Tris-buffered saline containing 0.05% Tween 20 and the assay was developed with tetramethylbenzidine/H2O2 in citric acid buffer. After stopping the reaction with one volume 1 N H2SO4 the reaction was measured in an ELISA reader at 450 nm wavelength. The concentrations of Aβ in the culture supernatants were calculated from a standard curve obtained with known amounts of pure Aβ peptide.
As to `CC[C@H](C)[C@H](NC(=O)[C@H](Cc1ccccc1)NC(=O)[C@H](Cc1ccc(O)cc1)NC(=O)[C@@H]1CCCN1C(=O)[C@@H](N)Cc1ccc(O)cc1)C(=O)N1CCC[C@H]1C(=O)N[C@@H](CC(C)C)C(=O)NCC(=O)NCC(=O)NCC(=O)N[C@@H](CCC(=O)O)C(=O)N[C@H](C(=O)N[C@@H](CC(N)=O)C(=O)N[C@@H](CC(C)C)[C@@H](O)CC(=O)N[C@H](C(=O)N[C@@H](C)C(=O)N[C@@H](CCC(=O)O)C(=O)N1CCC[C@@H]1C(=O)N[C@@H](CCCCNC(=O)CCC(=O)O[C@H]1CC[C@@]2(C)C(=CC[C@H]3[C@@H]4CC[C@H]([C@H](C)CCCC(C)C)[C@@]4(C)CC[C@@H]32)C1)C(N)=O)C(C)C)C(C)C` [Example 2, Tyr-Pro-Tyr-Phe-Ile-Pro-Leu-Gly-Gly-Gly-Glu-Val-Asn-Sta-Val-Ala-Glu-DPro-Lys(Chol)-NH2], the IC50 came to 0.027 nM.

Staying with this experiment, now noted: Aβ40 in supernatant of human HEK293 cells stably transfected with human APP wt (APP695); 18-20 hrs incubation; read-out: IC 50.
`CC[C@H](C)[C@H](NC(=O)[C@H](Cc1ccccc1)NC(=O)[C@H](Cc1ccc(O)cc1)NC(=O)[C@@H]1CCCN1C(=O)[C@@H](N)Cc1ccc(O)cc1)C(=O)N1CCC[C@H]1C(=O)N[C@@H](CC(C)C)C(=O)NCCOCCOCCOCCC(=O)N[C@@H](CCC(=O)O)C(=O)N[C@H](C(=O)N[C@@H](CC(N)=O)C(=O)N[C@@H](CC(C)C)[C@@H](O)CC(=O)N[C@H](C(=O)N[C@@H](C)C(=O)N[C@@H](CCC(=O)O)C(=O)N1CCC[C@@H]1C(=O)N[C@@H](CCCCNC(=O)CCC(=O)O[C@H]1CC[C@@]2(C)C(=CC[C@H]3[C@@H]4CC[C@H]([C@H](C)CCCC(C)C)[C@@]4(C)CC[C@@H]32)C1)C(N)=O)C(C)C)C(C)C` [Example 13, Tyr-Pro-Tyr-Phe-Ile-Pro-Leu-PEG(3)-Glu-Val-Asn-Sta-Val-Ala-Glu-DPro-Lys(Chol)-NH2] (H-YPYFIPL[PEG3]EVN[Sta]VAE[dP]K(Succinyl(4-O-cholesteryl))-NH2): the IC50 stood at 0.043 nM.

`CC[C@H](C)[C@H](NC(=O)[C@H](Cc1ccccc1)NC(=O)[C@H](Cc1ccc(O)cc1)NC(=O)[C@@H]1CCCN1C(=O)[C@@H](N)Cc1ccc(O)cc1)C(=O)N1CCC[C@H]1C(=O)N[C@@H](CC(C)C)C(=O)NCCOCCOCCOCCOCCC(=O)N[C@@H](CCC(=O)O)C(=O)N[C@H](C(=O)N[C@@H](CC(N)=O)C(=O)N[C@@H](CC(C)C)[C@@H](O)CC(=O)N[C@H](C(=O)N[C@@H](C)C(=O)N[C@@H](CCC(=O)O)C(=O)N1CCC[C@@H]1C(=O)N[C@@H](CCCCNC(=O)CCC(=O)O[C@H]1CC[C@@]2(C)C(=CC[C@H]3[C@@H]4CC[C@H]([C@H](C)CCCC(C)C)[C@@]4(C)CC[C@@H]32)C1)C(N)=O)C(C)C)C(C)C` [Example 14, Tyr-Pro-Tyr-Phe-Ile-Pro-Leu-PEG(4)-Glu-Val-Asn-Sta-Val-Ala-Glu-DPro-Lys(Chol)-NH2] (H-YPYFIPL[PEG4]EVN[Sta]VAE[dP]K(Succinyl(4-O-cholesteryl))-NH2): the IC50 worked out at 0.027 nM.

With `CC[C@H](C)[C@H](NC(=O)[C@H](Cc1ccccc1)NC(=O)[C@H](Cc1ccc(O)cc1)NC(=O)[C@@H]1CCCN1C(=O)[C@@H](N)Cc1ccc(O)cc1)C(=O)N1CCC[C@H]1C(=O)N[C@@H](CC(C)C)C(=O)NCC(=O)NCC(=O)NCC(=O)NCC(=O)N[C@@H](CCC(=O)O)C(=O)N[C@H](C(=O)N[C@@H](CC(N)=O)C(=O)N[C@@H](CCSC)[C@@H](O)CC(=O)N[C@H](C(=O)N[C@@H](C)C(=O)N[C@@H](CCC(=O)O)C(=O)N[C@H](Cc1ccccc1)C(=O)N[C@@H](CCCCNC(=O)CCC(=O)O[C@H]1CC[C@@]2(C)C(=CC[C@H]3[C@@H]4CC[C@H]([C@H](C)CCCC(C)C)[C@@]4(C)CC[C@@H]32)C1)C(N)=O)C(C)C)C(C)C` [Example 24, Tyr-Pro-Tyr-Phe-Ile-Pro-Leu-Gly-Gly-Gly-Gly-Glu-Val-Asn-MetSta-Val-Ala-Glu-DPhe-Lys(Chol)-NH2], the IC50 worked out at 0.052 nM.

Another experiment deals with BACE1 enzyme (UniProt P56817 46-501, limits assumed). Put plainly: cell-based or functional assay.
Sequence of BACE1 enzyme (P56817 46-501 limits assumed): as the sequence (P56817 46-501) above
Settings: not given
With YPYFIPKG[dK]GEVN[Sta]VAE[dP]K(Chol'ester')-NH2 (also: 3TFA salt), the “IC50, cellular Aβ-lowering assay (Aβ40 in supernatant of HEK293 cells expressing human APP695)” value (from here on “IC50, cellular Aβ-lowering assay”) was determined as 0.012 nM.

As to YPY[dK]IPLG[dK]GEVN[Sta]VAE[dP]K(Chol'ester')-NH2 (also: x 3TFA salt), the “IC50, cellular Aβ-lowering assay” value worked out at 6.5 nM.

YPYFIPLSGGEVN[Sta]VAE[dP]K(Chol'ester')-NH2 (also: TFA salt) [Tyr-Pro-Tyr-Phe-Ile-Pro-Leu-Ser-Gly-Gly-Glu-Val-Asn-Sta-Val-Ala-Glu-DPro-Lys(Chol'ester')-NH2 x TFA]: the “IC50, cellular Aβ-lowering assay” value is 0.052 nM.

Turning to YPYKIPLG[dK]GEVN[Sta]VAE[dP]K(Chol'ester')-NH2 (also: x 3TFA salt), the “IC50, cellular Aβ-lowering assay” value amounted to 2.3 nM.

In the case of YPYFI[dK]LG[dK]GEVN[Sta]VAE[dP]K(Chol'ester')-NH2 (also: x 3TFA salt), the “IC50, cellular Aβ-lowering assay” value came out at 0.45 nM.

YP[dK]FIPLG[dK]GEVN[Sta]VAE[dP]K(Chol'ester')-NH2 (also: x 3TFA salt): the “IC50, cellular Aβ-lowering assay” value was determined as 0.78 nM.

Consider B1, for which the “IC50, cellular Aβ-lowering assay” value turned out to be 0.039 nM.

YPYFIPLGGGGGEVN[Sta]VAE[dP]K(Chol)-NH2 (also: TFA salt) [Tyr-Pro-Tyr-Phe-Ile-Pro-Leu-Gly-Gly-Gly-Gly-Gly-Glu-Val-Asn-Sta-Val-Ala-Glu-DPro-Lys(Chol)-NH2 x TFA]: the “IC50, cellular Aβ-lowering assay” value was determined as 0.044 nM.

For YPYF[dK]PLG[dK]GEVN[Sta]VAE[dP]K(Chol'ester')-NH2 (also: x 3TFA salt), the “IC50, cellular Aβ-lowering assay” value was determined as 7.6 nM.

With [dK]PYFIPLG[dK]GEVN[Sta]VAE[dP]K(Chol'ester')-NH2 (also: x 3TFA salt), the “IC50, cellular Aβ-lowering assay” value was 0.013 nM.

For YPYFIPL[dA]GGEVN[Sta]VAE[dP]K(Chol'ester')-NH2 (also: x TFA salt) [Tyr-Pro-Tyr-Phe-Ile-Pro-Leu-DAla-Gly-Gly-Glu-Val-Asn-Sta-Val-Ala-Glu-DPro-Lys(Chol'ester')-NH2 x TFA], the “IC50, cellular Aβ-lowering assay” value came out at 0.055 nM.

Take YPYFIPLGGGGEVN[Sta]VAE[dP]K(Chol)-NH2 (also: TFA salt) [Tyr-Pro-Tyr-Phe-Ile-Pro-Leu-Gly-Gly-Gly-Gly-Glu-Val-Asn-Sta-Val-Ala-Glu-DPro-Lys(Chol)-NH2 x TFA]: the “IC50, cellular Aβ-lowering assay” value was 0.042 nM.

On to YKYFIPLG[dK]GEVN[Sta]VAE[dP]K(Chol'ester')-NH2 (also: x 3TFA salt), for which the “IC50, cellular Aβ-lowering assay” value is 0.25 nM.

For YPYFIPL[βAla]EVN[Sta]VAE[dP]K(Chol)-NH2 (also: TFA salt) [Tyr-Pro-Tyr-Phe-Ile-Pro-Leu-NH(CH2)2CO-Glu-Val-Asn-Sta-Val-Ala-Glu-DPro-Lys(Chol)-NH2 x TFA], the “IC50, cellular Aβ-lowering assay” value was determined as 2.8 nM.

On to YPYFIPLGGGGEVN[Sta]DAE[dP]K(Chol)-NH2 (also: x TFA salt) [Tyr-Pro-Tyr-Phe-Ile-Pro-Leu-Gly-Gly-Gly-Gly-Glu-Val-Asn-Sta-Asp-Ala-Glu-DPro-Lys(Chol)-NH2 x TFA], for which the “IC50, cellular Aβ-lowering assay” value was 3.3 nM.

Y[dK]YFIPLG[dK]GEVN[Sta]VAE[dP]K(Chol'ester')-NH2 (also: x 3TFA salt): the “IC50, cellular Aβ-lowering assay” value was 3.4 nM.

For the molecule YPKFIPLG[dK]GEVN[MetSta(3S,4S)]VAEPK(Chol'ester')-NH2 (also: x 3TFA salt), the “IC50, cellular Aβ-lowering assay” value was 0.061 nM.

Turning to YPYFIPLG[dA]GEVN[Sta]VAE[dP]K(Chol'ester')-NH2 (also: x TFA salt) [Tyr-Pro-Tyr-Phe-Ile-Pro-Leu-Gly-DAla-Gly-Glu-Val-Asn-Sta-Val-Ala-Glu-DPro-Lys(Chol'ester')-NH2 x TFA], the “IC50, cellular Aβ-lowering assay” value came out at 0.02 nM.

Consider YPYFIP[dK]G[dK]GEVN[Sta]VAE[dP]K(Chol'ester')-NH2 (also: x 3TFA salt), for which the “IC50, cellular Aβ-lowering assay” value is 0.0059 nM.

Consider YPYFIPL[Ava]EVN[Sta]VAE[dP]K(Chol)-NH2 (also: TFA salt) [Tyr-Pro-Tyr-Phe-Ile-Pro-Leu-NH(CH2)4CO-Glu-Val-Asn-Sta-Val-Ala-Glu-DPro-Lys(Chol)-NH2 x TFA], for which the “IC50, cellular Aβ-lowering assay” value was determined as 0.84 nM.
